Data from patent publication US20030105000A1 (UNIVERSITY OF VERMONT AND STATE AGRICULTURAL COLLEGE, published 2003).
Positions of bridges follow the written chain, without caps; N, C: chain ends. No end group written: not given here.

T1: Grb14-SH2-GST (UniProt Q14449 423-540)
T1 construct: domain: SH2 domain; also called SH2 domain of Grb14; not shown: glutathione-S-transferase (GST) fusion partner
T1 sequence (looked up): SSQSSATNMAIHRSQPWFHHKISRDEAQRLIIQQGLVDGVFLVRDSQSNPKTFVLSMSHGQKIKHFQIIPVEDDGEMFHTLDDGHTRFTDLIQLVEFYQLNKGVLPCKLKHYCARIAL

B1: G7BP-3 peptide-phage clone (peptide, not shown: large carriers)
peptide: NVSECIYIHYDNWSLCGVEV
modifications: disulfide 5-16; also: displayed on phage gene III protein
notes: Tested as a phage clone displaying the peptide on the gene III protein
B2: G7BP-2 peptide-phage clone (peptide, not shown: large carriers)
peptide: KLFWCTYEDYANEWPCPGYS
modifications: disulfide 5-16; also: displayed on phage gene III protein
notes: as for B1
B3: G7BP-7 peptide-phage clone (peptide, not shown: large carriers)
peptide: RTSPCGYIGYDNIFECTYLG
modifications: disulfide 5-16; also: displayed on phage gene III protein
notes: as for B1
B4: G7BP-6 peptide-phage clone (peptide, not shown: large carriers)
peptide: FCAVCNEELYENCGGCSVGK
modifications: disulfide 5-16; cysteine pairing not given here; also: displayed on phage gene III protein
notes: as for B1
B5: G7BP-4 peptide-phage clone (peptide, not shown: large carriers)
peptide: GVSNCVFWGYANDWLCSDYS
modifications: disulfide 5-16; also: displayed on phage gene III protein
notes: Tested as a phage clone displaying the peptide on the gene III protein; also called G7-8 peptide-phage
B6: G7BP-5 peptide-phage clone (peptide, not shown: large carriers)
peptide: RSTLCWFEGYDNTFPCKYFR
modifications: disulfide 5-16; also: displayed on phage gene III protein
notes: Tested as a phage clone; also called G7-18 peptide-phage
B7: G7-18 free synthetic peptide (peptide)
peptide: RSTLCWFEGYDNTFPCKYFR
modifications: disulfide 5-16 (inferred)
notes: Free synthetic peptide, not on phage; also called G7BP-5; G7-18 (disulfide)
B8: G7-8 free synthetic peptide (peptide)
peptide: GVSNCVFWGYANDWLCSDYS
modifications: disulfide 5-16 (inferred)
notes: Free synthetic peptide, not on phage; also called G7BP-4
B9: G7-8NATE free synthetic peptide (peptide)
peptide: VFWGYANDWLC
modifications: non-phosphorylated; thioether bond between the ends of the peptide (N-terminal cysteine replaced by another functional group)
notes: Lacks the arms; also called G7BP-4NATE
B10: G7-18NATE free synthetic peptide (peptide)
peptide: WFEGYDNTFPC
modifications: non-phosphorylated; thioether bond between the ends of the peptide (N-terminal cysteine replaced by another functional group)
notes: Lacks the 4-residue arms on both sides; cyclised by a thioether; also called G7BP-5NATE; G7-18NATE (thioether)

molecular target: T2, GST alone (UniProt P08515 1-218 = GST); experiment: phage ELISA on coated protein (FIG. 1)
T2 construct: Control protein coated on the ELISA plate; also called fusion protein (GST)
T2 sequence (P08515 whole entry, the tested form may be a part): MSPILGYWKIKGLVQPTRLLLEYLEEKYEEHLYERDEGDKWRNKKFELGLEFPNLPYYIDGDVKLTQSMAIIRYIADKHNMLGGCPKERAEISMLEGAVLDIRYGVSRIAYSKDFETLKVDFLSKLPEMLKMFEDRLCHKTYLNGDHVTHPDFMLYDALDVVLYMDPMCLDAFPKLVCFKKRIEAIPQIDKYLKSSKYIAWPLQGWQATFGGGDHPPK
Source text: (§1) The overall methodology of an ELISA is well established. […] Non-specific binding was blocked by casein. Binding of phage was detected using an anti-phage antibody conjugated to horseradish peroxidase.

Binder	binding result
B1	no binding
B2	no binding
B3	no binding
B4	no binding
B5	no binding
B6	no binding

molecular target: T3, BSA (UniProt P02769 25-607); experiment: phage ELISA on coated protein (FIG. 1)
T3 construct: also called bovine serum albumin
T3 sequence (P02769 25-607 limits assumed): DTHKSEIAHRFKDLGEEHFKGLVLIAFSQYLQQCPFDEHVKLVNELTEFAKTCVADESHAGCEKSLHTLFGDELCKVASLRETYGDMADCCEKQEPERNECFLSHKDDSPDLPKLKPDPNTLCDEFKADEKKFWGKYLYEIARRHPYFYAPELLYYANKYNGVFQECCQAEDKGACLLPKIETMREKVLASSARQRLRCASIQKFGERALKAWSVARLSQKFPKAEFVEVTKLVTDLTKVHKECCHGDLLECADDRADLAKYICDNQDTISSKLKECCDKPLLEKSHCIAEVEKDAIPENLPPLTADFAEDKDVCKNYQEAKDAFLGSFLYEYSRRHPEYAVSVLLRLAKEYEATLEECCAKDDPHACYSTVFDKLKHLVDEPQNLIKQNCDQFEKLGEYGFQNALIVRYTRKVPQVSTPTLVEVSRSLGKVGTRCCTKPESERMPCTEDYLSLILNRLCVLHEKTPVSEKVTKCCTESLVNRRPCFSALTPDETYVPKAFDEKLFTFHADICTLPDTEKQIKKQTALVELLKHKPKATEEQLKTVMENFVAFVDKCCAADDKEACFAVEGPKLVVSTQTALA
Source text: as §1

Binder	binding result
B1	no binding
B2	no binding
B3	no binding
B4	no binding
B5	no binding
B6	no binding

molecular target: T4, Grb2-GST (UniProt P62993 1-217); experiment: phage ELISA on coated protein (FIG. 1)
T4 construct: also called full length Grb2; not shown: glutathione-S-transferase (GST) fusion partner
T4 sequence (P62993 whole entry, the tested form may be a part): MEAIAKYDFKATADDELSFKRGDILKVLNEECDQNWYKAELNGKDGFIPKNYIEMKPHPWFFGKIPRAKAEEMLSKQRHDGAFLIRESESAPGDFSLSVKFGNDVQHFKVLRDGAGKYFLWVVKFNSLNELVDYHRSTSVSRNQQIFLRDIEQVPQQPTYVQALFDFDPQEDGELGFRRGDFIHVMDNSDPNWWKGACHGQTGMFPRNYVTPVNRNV
Source text: as §1

Binder	binding result
B1	no binding
B3	no binding
B4	no binding
B5	no binding
B6	no binding

molecular target: T4, Grb2-GST; experiment: competition ELISA against Grb2-binding peptide-phage (data not shown)

Binder	binding result
B7	no binding
B8	no binding

molecular target: T5, Grb7-SH2 domain-GST (SH2 domain of human Grb7 containing a GST fusion tag) (human, UniProt Q14451 415-532); experiment: competition ELISA on Grb7-SH2-GST; competitor G7-8NA peptide-phage (FIG. 5B)
T5 construct: domain: SH2 domain; Purified from E. coli; also called Grb7-SH2-GST; not shown: glutathione-S-transferase (GST) fusion tag
T5 sequence (Q14451 415-532): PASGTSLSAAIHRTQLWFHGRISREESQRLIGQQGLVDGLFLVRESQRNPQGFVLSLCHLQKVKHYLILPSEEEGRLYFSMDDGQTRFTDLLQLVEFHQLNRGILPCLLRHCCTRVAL
Source text: (§2) Unbound phage were washed away with Tween-TBS buffer and bound phage were detected with anti-M13-horseradish peroxidase (Amersham-Pharmacia Biotech) and ABTS substrate (Calbiochem). […] Plates were read at OD₄₀₅.

Binder	binding result
B9	binds

molecular target: T1, Grb14-SH2-GST; experiment: phage ELISA (FIG. 4)

Binder	binding result
B1	no binding
B2	no binding
B3	no binding
B4	no binding
B5	no binding
B6	no binding

molecular target: T4, Grb2-GST; experiment: phage ELISA (FIG. 4)

Binder	binding result
B2	no binding

molecular target: T5, Grb7-SH2 domain-GST (SH2 domain of …); experiment: competition ELISA on Grb7-SH2-GST; free peptide 1, 10, 100 uM; competitor G7-18 peptide-phage (FIG. 5A)
Source text: as §2

Binder	binding result
B7	binds
B8	binds

molecular target: T5, Grb7-SH2 domain-GST (SH2 domain of …); experiment: phage ELISA (legend of FIG. 1)
Source text: as §1

Binder	binding result
B2	binds

molecular target: T5, Grb7-SH2 domain-GST (SH2 domain of …); experiment: assay not described (sentence of Example 3)

Binder	binding result
CNEELYENCGGC (disulfide (positions not given here); not fully specified) [G7BP-6NA]	binds
CGYIGYDNIFEC (disulfide 1-12 (inferred)) [G7BP-7NA]	binds
CIYIHYDNWSLC (disulfide 1-12 (inferred)) [G7BP-3NA]	binds
CWFEGYDNTFPC (also called G7-18NA) [G7BP-5NA]	binds
CKYLYYDNDYLC (disulfide 1-12 (inferred)) [G7BP-1NA]	binds

molecular target: T5, Grb7-SH2 domain-GST (SH2 domain of …); experiment: competition ELISA on Grb7-SH2-GST; competitor G7-18 peptide-phage (FIG. 5A)
Source text: as §2

Binder	binding result
B10	binds

molecular target: T5, Grb7-SH2 domain-GST (SH2 domain of …); experiment: phage ELISA on coated Grb7-SH2 domain-GST, anti-phage-HRP (FIG. 1)
Source text: as §1

Binder	binding result
B1	binds
B3	binds
B4	binds
B5	binds
B6	binds
